From patent publication US11547673

Key:
[1] = biological target: human ACE2 peptidase domain (amino acids 1-615 of human ACE2 with C-terminal His-10 and Avi tags) (human) (UniProt Q9BYF1)
[2] = biological target: human ACE2 peptidase domain (amino acids 1-615 of human ACE2 with C-terminal His-10 and Avi tags) (human) (UniProt Q9BYF1); experiment: biolayer interferometry; the reference KD of monomeric RBD is a literature value

Sequence of UniProt Q9BYF1 (Q9BYF1 18-615 limits assumed): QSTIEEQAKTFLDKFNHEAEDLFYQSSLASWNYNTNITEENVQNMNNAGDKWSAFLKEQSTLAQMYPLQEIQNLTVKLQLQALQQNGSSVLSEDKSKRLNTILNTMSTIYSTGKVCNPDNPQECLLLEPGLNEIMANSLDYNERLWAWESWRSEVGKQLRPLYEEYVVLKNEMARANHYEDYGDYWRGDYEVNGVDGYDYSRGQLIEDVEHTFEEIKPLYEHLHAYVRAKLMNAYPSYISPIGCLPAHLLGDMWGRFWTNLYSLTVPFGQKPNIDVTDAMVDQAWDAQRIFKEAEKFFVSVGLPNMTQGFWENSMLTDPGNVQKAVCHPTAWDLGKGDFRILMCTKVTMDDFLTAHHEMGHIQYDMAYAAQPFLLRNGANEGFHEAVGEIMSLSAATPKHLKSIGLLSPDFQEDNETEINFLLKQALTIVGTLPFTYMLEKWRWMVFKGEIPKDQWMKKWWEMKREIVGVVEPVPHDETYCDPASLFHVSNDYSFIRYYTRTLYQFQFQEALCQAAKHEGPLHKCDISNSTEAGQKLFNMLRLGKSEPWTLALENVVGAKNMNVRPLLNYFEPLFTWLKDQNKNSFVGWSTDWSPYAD

trimerised SARS-CoV-2 S receptor-binding domain fused to the T4 fibritin foldon trimerisation domain (ligand; other documents disagree on this pair)
Kd [1]: 5 pM
fold of the reported KD of monomeric RBD [2]: 1000 fold
